Measurements published in patent publication US20110262446A1 (published 2011).

Legend:
[1] = molecular target: T1, IGF-II (amino acids 1-67) (human, UniProt P01344 25-91); assay: SPR (Biacore T100): IgG captured on Protein G', ligand bound, then BP injected; competitor BP2
T1 construct: mature; also called IGF-II (67aa); IGF2
Protocol: (§1) BIACORE® T100 and a CM5 chip coated with Protein G were utilised to set up following assay. Approximately 1000 RU of Protein G′ was immobilized on a CM5 chip using standard amine chemistry immobilization method. Entire assay consisted of three sequential injection of following four reagents 1) Candidate IgG was injected onto Protein G′ at 10 ug/ml at 5 ul/min for 180 sec.

[2] = molecular target: T1, IGF-II (amino acids 1-67); assay: SPR (Biacore T100): IgG captured on Protein G', ligand bound, then BP injected; competitor BP4
Protocol: as §1

[3] = molecular target: T1, IGF-II (amino acids 1-67); assay: SPR (Flexchip), Fab, first of duplicate; unit inferred
[4] = molecular target: T1, IGF-II (amino acids 1-67); assay: SPR (Flexchip), Fab, second of duplicate; unit inferred
[5] = molecular target: T1, IGF-II (amino acids 1-67); assay: competition SPR (Biacore T100), affinity in solution: Fab pre-incubated with ligand, free ligand read on immobilized huIR-A ECD; measurement #1; head prints 'KD nM'
Protocol: (§2) Competition SPR (BIACORE®) was performed under conditions of partially mass-transport limited conditions according to previously described methodology (Nieba et al., 1996). Approximately 16,700 relative response units (RU) of huIR-A (-exon11) ectodomain was coupled by standard amine chemistry to a BIACORE® CM5 chip sensor. Uncoated flow-cell surface was used as a reference. […] Regeneration of the surface was achieved by injection of 30 ul NaCltrate/NaCl pH 4.5. […] These Req estimates were subsequently plotted against total concentrations of Fab used and the resulting inhibition curve was utilised to calculate dissociation constant (KD).

[6] = molecular target: T1, IGF-II (amino acids 1-67); assay: competition SPR (Biacore T100) on immobilized huIR-A ECD, measurement #1
Protocol: as §2

[7] = molecular target: IGF-I (UniProt P05019 49-118); assay: cell-based or functional assay
[8] = molecular target: T1, IGF-II (amino acids 1-67); assay: cell-based or functional assay
[9] = molecular target: T1, IGF-II (amino acids 1-67); assay: competition SPR (Biacore T100), affinity in solution: Fab pre-incubated with ligand, free ligand read on immobilized huIR-A ECD; measurement #2; head prints 'KD nM'
Protocol: as §2

[10] = molecular target: T1, IGF-II (amino acids 1-67); assay: cell-based or functional assay; remark: listed apart in the source
[11] = molecular target: T1, IGF-II (amino acids 1-67); assay: SPR (Biacore), non-germlined IgG

IGF-I, sequence (P05019 49-118 limits assumed): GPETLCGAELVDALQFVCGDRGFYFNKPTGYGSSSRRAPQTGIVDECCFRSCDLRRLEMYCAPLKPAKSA
T1 sequence (P01344 25-91): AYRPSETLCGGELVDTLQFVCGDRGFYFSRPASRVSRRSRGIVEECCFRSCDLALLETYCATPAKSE

Row | Binder | competition score (0 = does not compete significantly, 5 = competes strongly) [1] | competition score (0 = does not compete significantly, 5 = competes strongly) [2] | Kd [3] | Kd [4] | Kd [5] | decrease in IGF-I stimulated cell proliferation, sFab at 50 µg/ml [7] | IC50, IGF-II stimulated BA/F3 cell proliferation (MTS) [8] | other results
1 | M0070-H08 IgG (antibody, V domains shown) VH: EVQLLESGGGLVQPGGSLRLSCAASGFTFSRYWMIWVRQAPGKGLEWVSSIRSSGETKYADSVKGRFTISRDNSKNTLYLQMNSLRAEDTAVYYCARGPLSDYYDSSGYYFDAFDIWGQGTMVTVSS VL: DIQMTQSPSSLSASAGDRVTITCRASQSISSYLNWYQQKPGKAPNLLIYTTSNLQGGVPSRFSGSGSGTDFTLTISSLQPEDFATYYCQQGYSFPLTFGGGTKVEIK | 3 score 0-5 | 2 score 0-5 | – | – | – | – | – | –
2 | M0070-H08 Fab (Fab, V domains shown, Soluble Fab from phage display; also called M0070-H08(R0032-A07)) VH: EVQLLESGGGLVQPGGSLRLSCAASGFTFSRYWMIWVRQAPGKGLEWVSSIRSSGETKYADSVKGRFTISRDNSKNTLYLQMNSLRAEDTAVYYCARGPLSDYYDSSGYYFDAFDIWGQGTMVTVSS VL: DIQMTQSPSSLSASAGDRVTITCRASQSISSYLNWYQQKPGKAPNLLIYTTSNLQGGVPSRFSGSGSGTDFTLTISSLQPEDFATYYCQQGYSFPLTFGGGTKVEIKR | – | – | 3.3 nM | 1.1 nM | 3.24 nM | – | – | –
3 | M0080-G03 Fab (Fab, V domains shown, Anti-IGF-IIE Fab; the constant regions are printed only in part; also called 566A-M0080-G03; 566A-X0004-A02) VH: EVQLLESGGGLVQPGGSLRLSCAASGFTFSFYQMMWVRQAPGKGLEWVSSISPSGGRTYYADSVKGRFTISRDNSKNTLYLQMNSLRAEDTAVYYCAKDIGLGYCSSTSCYTGTPLDYWGQGTLVTVSS VL: not shown | – | – | – | – | – | – | – | binding result [6]: no binding
4 | M0072-E03 Fab (Fab, V domains shown, Soluble Fab from phage display; also called M0072-E03(R0032-C03)) VH: EVQLLESGGGLVQPGGSLRLSCAASGFTFSEYEMSWVRQAPGKGLEWVSSIYSSGGWTKYTDSVKGRFTISRDNSKNTLYLQMNSLRAEDTAVYYCAKGVHYDSSGLPIDWYFDLWGRGTLVTVSS VL: not shown | – | – | 0.75 nM | 0.3 nM | 2.62 nM | ~30% | – | –
5 | M0072-E03 IgG (antibody, V domains shown) VH: EVQLLESGGGLVQPGGSLRLSCAASGFTFSEYEMSWVRQAPGKGLEWVSSIYSSGGWTKYTDSVKGRFTISRDNSKNTLYLQMNSLRAEDTAVYYCAKGVHYDSSGLPIDWYFDLWGRGTLVTVSS VL: not shown | 4 score 0-5 | 4 score 0-5 | – | – | – | – | – | –
6 | M0063-F02 Fab (Fab, V domains shown, Soluble Fab from phage display; also called M0063-F02(R0032-A01)) VH: EVQLLESGGGLVQPGGSLRLSCAASGFTFSKYEMDWVRQAPGKGLEWVSVISSSGGGTIYADSVKGRFTISRDNSKNTLYLQMNSLRAEDTAMYYCARGRTLYGGAFDIWGQGTMVTVSS VL: DIQMTQSPSSLSASVGDRVTITCRASQPINTYLNWYQQRPGKAPRILIYTSSTLQSGVPSRFSGSGSGTDFTLTISSVQPEDFATYYCQQSYSFPLTFGGGTKVEIKR | – | – | 0.77 nM | 1.6 nM | 1.17 nM | ~30% | 5.56 µg/mL | Kd [9]: 0.858 nM
7 | M0063-F02 IgG (antibody, V domains shown, IgG form of the Fab; Variable domains as printed for the Fab (LV with its leading Q)) VH: EVQLLESGGGLVQPGGSLRLSCAASGFTFSKYEMDWVRQAPGKGLEWVSVISSSGGGTIYADSVKGRFTISRDNSKNTLYLQMNSLRAEDTAMYYCARGRTLYGGAFDIWGQGTMVTVSS VL: DIQMTQSPSSLSASVGDRVTITCRASQPINTYLNWYQQRPGKAPRILIYTSSTLQSGVPSRFSGSGSGTDFTLTISSVQPEDFATYYCQQSYSFPLTFGGGTKVEIK | 1 score 0-5 | 0 score 0-5 | – | – | – | – | – | IC50, IGF-II stimulated BaF3 cell proliferation (Guava ViaCount) [10]: 2 nM; IC50, IGF-II stimulated BaF3 cell proliferation (Guava ViaCount), second study [10]: ~7 nM
8 | M0064-F02 Fab (Fab, V domains shown, Soluble Fab from phage display; also called M0064-F02(R0032-A11); 566A-M0064-F02) VH: EVQLLESGGGLVQPGGSLRLSCAASGFTFSNYIMWWVRQAPGKGLEWVSVISSSGGMTRYADSVKGRFTISRDNSKNTLYLQMNSLRAEDTAVYYCARDNGDYVGEKGFDIWGQGTMVTVSS VL: DIQMTQSPSSLSASVGDRVTITCRASQSISNYLNWYQQKPGKAPKLLIYTASTLQSGVPSRFSGSASGTDFTLTINSLQPEDFATYSCQQSYNSPWTFGQGTKVEIKR | – | – | 0.45 nM | 1.2 nM | 1.03 nM | ~30% | 0.68 µg/mL | Kd [9]: 0.503 nM
9 | M0064-F02 IgG (antibody, V domains shown, IgG form of the Fab; also called non-germlined M0064-F02) VH: EVQLLESGGGLVQPGGSLRLSCAASGFTFSNYIMWWVRQAPGKGLEWVSVISSSGGMTRYADSVKGRFTISRDNSKNTLYLQMNSLRAEDTAVYYCARDNGDYVGEKGFDIWGQGTMVTVSS VL: DIQMTQSPSSLSASVGDRVTITCRASQSISNYLNWYQQKPGKAPKLLIYTASTLQSGVPSRFSGSASGTDFTLTINSLQPEDFATYSCQQSYNSPWTFGQGTKVEIK | 4 score 0-5 | 4 score 0-5 | – | – | – | – | – | Kd [11]: 0.14 nM
10 | M0072-G06 Fab (Fab, V domains shown, Soluble Fab from phage display; also called M0072-G06(R0032-C05)) VH: EVQLLESGGGLVQPGGSLRLSCAASGFTFSEYVMWWVRQAPGKGLEWVSVISPSGGYTVYADSVKGRFTISRDNSKNTLYLQMNSLRAEDTAVYYCARDRGGATTLDYWGQGTLVTVSS VL: DIQMTQSPSTLSASVGDRVTITCRASQTISSWLAWYQQKPGKAPKLMIYKAASLGSEVPSRFSGSGSGTEFTLTISSLQPEDFSTYYCQQYKTYPVTFGQGTRLEIKR | – | – | 0.58 nM | 1.4 nM | 3.99 nM | – | 8.7 µg/mL | –
11 | M0072-G06 IgG (antibody, V domains shown) VH: EVQLLESGGGLVQPGGSLRLSCAASGFTFSEYVMWWVRQAPGKGLEWVSVISPSGGYTVYADSVKGRFTISRDNSKNTLYLQMNSLRAEDTAVYYCARDRGGATTLDYWGQGTLVTVSS VL: DIQMTQSPSTLSASVGDRVTITCRASQTISSWLAWYQQKPGKAPKLMIYKAASLGSEVPSRFSGSGSGTEFTLTISSLQPEDFSTYYCQQYKTYPVTFGQGTRLEIK | 2 score 0-5 | 1 score 0-5 | – | – | – | – | – | –
12 | M0072-C06 Fab (Fab, V domains shown, Soluble Fab from phage display; Often printed as M0072-006; also called M0072-006; M0072-C06(R0032-A09)) VH: EVQLLESGGGLVQPGGSLRLSCAASGFTFSAYIMTWVRQAPGKGLEWVSSISPSGGYTVYADSVKGRFTISRDNSKNTLYLQMNSLRAEDTAVYYCARDSGFGDPFDYWGQGTMVTVSS VL: DIQMTQSPSSLSASVGDRVTITCRASQSIRNYLNWYQQKPGKAPKLLIYAASKLEDGVPSRFSGSGTGTDFTLTIRSLQPEDFASYFCQQSYSSPGITFGPGTKVEIKR | – | – | 5.2 nM | 0.7 nM | 1.64 nM | ~30% | 5.12 µg/mL | Kd [9]: 2.52 nM
13 | M0072-C06 IgG (antibody, V domains shown) VH: EVQLLESGGGLVQPGGSLRLSCAASGFTFSAYIMTWVRQAPGKGLEWVSSISPSGGYTVYADSVKGRFTISRDNSKNTLYLQMNSLRAEDTAVYYCARDSGFGDPFDYWGQGTMVTVSS VL: DIQMTQSPSSLSASVGDRVTITCRASQSIRNYLNWYQQKPGKAPKLLIYAASKLEDGVPSRFSGSGTGTDFTLTIRSLQPEDFASYFCQQSYSSPGITFGPGTKVEIK | 3 score 0-5 | 2 score 0-5 | – | – | – | – | – | –
14 | M0073-C11 Fab (Fab, V domains shown, Anti-IGF-IIE Fab; the constant regions are printed only in part; also called 566A-M0073-C11; 566A-X0003-B02) VH: EVQLLESGGGLVQPGGSLRLSCAASGFTFSPYDMWWVRQAPGKGLEWVSSISSSGGITAYADSVKGRFTISRDNSKNTLYLQMNSLRAEDTAVYYCARAGYSSSWGYYYYGMDVWGQGTTVTVSS VL: QSALTQPPSVSVSPGQTASITCSGDRLGDKYASWYQQKPGQSPVLVIYQDTKRPSGIPERFSGSNSGSTATLTISGTQAMDEADYYCQAWDSSTVVFGGGTKLTVL | – | – | – | – | – | – | – | binding result [6]: no binding
15 | M0064-E04 Fab (Fab, V domains shown, Soluble Fab from phage display; also called M0064-E04(R0032-A03); 566A-M0064-E04) VH: EVQLLESGGGLVQPGGSLRLSCAASGFTFSVYDMNWVRQAPGKGLEWVSSISSSGGGTLYADSVKGRFTISRDNSKNTLYLQMNSLRAEDTAVYYCARDSDTSSYYWYYDLWGRGTLVTVSS VL: DIQMTQSPSSLSASVGDRVTITCQASHDISNYLNWYQQKPGKAPKLLIYAASRLQSGVPSRFSGGGSGTDFSLTISSLQAEDFATYYCQQSYSFPRTFGQGTNLEIKR | – | – | 0.12 nM | 0.25 nM | 0.608 nM | ~30% | 3.04 µg/mL | Kd [9]: 1.11 nM
